Assay results taken from PMC314469, “Protein Interaction Networks by Proteome Peptide Scanning” (PLoS Biology, 2004).

T1: amphyphisin SH3 (AMPH_HUMAN), P49418
T1 chain: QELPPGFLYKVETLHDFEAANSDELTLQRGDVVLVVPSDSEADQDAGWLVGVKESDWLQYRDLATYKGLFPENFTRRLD


Experiments:
[1] = molecular target: T1, amphyphisin SH3 (AMPH_HUMAN), P49418; assay: SPOT array
[2] = molecular target: endophilin SH3 (SH3G2_HUMAN), Q99962; assay: SPOT array

| normalised SPOT signal, Boehringer light units (BLU); mean over the file's lines of this peptide [1] | normalised SPOT signal, Boehringer light units (BLU); mean over the file's lines of this peptide [2] | Binder |
| --- | --- | --- |
| 5240 | 420 | PTVTPRRPGRPDHR [P51511 317-330] |
| 844 | 378 | QSDSIRRPLRPGQY [O75878 30-43] |
| 43 | 204 | PWQRPKRPGHGHGW [Q03252 424-437] |
| 3040 | 218 | PWRGFSRPSRFFSS [Q14968 167-180] |
| 178 | 1370 | QAATPRRPAAISRP [Q96E55 116-129] |
| 47 | 50.1 | PVLDLKRPFLSRES [P47985 41-54] |
| 12.2 | 190 | ASSSPKRPSVERSN [O75764 109-122] |
| 1060 | 226 | QALYFSRPFREKVL [O75317 40-53] |
| 2910 | 70.9 | QEALPMRPAREGEL [Q9Y6J9 86-99] |
| 23500 | 19900 | PTRPPSRPPSRPSR [Q99700 579-593] |
| 6850 | 20200 | ASSRPGRPPKRSLG [BAC03761 161-175] |
| 1510 | 4420 | PTTRPTRPPPPLIP [O75376 1024-1038] |
| 17500 | 9690 | PTILPSRPQRSASH [Q16671 539-552] |
| 266 | 154 | QDLRPLRPPAQTPQ [O00456 524-538] |
| 20600 | 2900 | QDSPPPKPPRTRSS [Q05209 329-343] |
| 32.6 | 870 | PTSVPRRPGQRRPP [P48023 33-46] |
| 57.5 | 106 | ASSGLRRPEKPPYS [Q12947 91-104] |
| 80.1 | 62.6 | QAVFPFKPPQRIEA [Q9Y6X3 59-73] |
| 13600 | 7540 | QAGPPSRPPRYSSS [AAH32298 59-73] |
| 4280 | 556 | QAGGPQRPGRVVSL [Q13671 45-58] |
| 38.5 | 119 | QAQLPPKPPAWAWA [P54098 158-172] |
| 48.8 | 116 | AASGIKRPMASEVL [Q99755 29-42] |
| 351 | 282 | PYPLILRPQRGVDL [P47712 557-570] |
| 35.4 | 63.7 | PVLDLRRPPSDLYL [Q9Y618 2172-2185] |

The next lines start with the binder.

| Binder | normalised SPOT signal, Boehringer light units (BLU); mean over the file's lines of this peptide [1] | normalised SPOT signal, Boehringer light units (BLU); mean over the file's lines of this peptide [2] |
| --- | --- | --- |
| QAGFPRRPPPRGTR [Q9UER3 87-101] | 6450 | 7340 |
| ASSRPGRPPKRTQS [Q9UI36 281-295] | 950 | 5690 |
| QASRFQRPGRRMSE [Q9BZ71 507-520] | 4120 | 445 |
| PTQELRRPSKSMDK [Q9C098 170-183] | 48.6 | 35 |
| QAVLPPRPPKVLEF [Q9NWT4 356-370] | 346 | 1570 |
| PVEAIKRPSPDEPM [Q9H3D6 83-96] | 42.3 | 101 |
| QDAYLSRPGRALAH [Q9UIW2 291-304] | 165 | 219 |
| PTRPPSRPPSRPQS [Q9NZM4 744-758] | 7120 | 5850 |
| QELLPGKPPKSRVL [Q8TC00 766-780] | 49.9 | 156 |
| QALYFSRPFRENVL [Q9H9T8 51-64] | 2250 | 224 |
| QAVHLPRPPRVLGL [Q9H960 30-43] | 1920 | 178 |
| PVLSPRRPWPSLSW [Q9NUD3 48-61] | 101 | 109 |
| PVAVLKRPSQLSRK [Q9BQI8 153-166] | 46.3 | 72.6 |
| QAAFPRRPPPRGTR [Q9Y5N2 203-217] | 6180 | 6430 |
| PVVLPWRPARAHSS [Q9Y2H3 1375-1388] | 8510 | 2120 |
| QEDSPRKPPNFPVP [Q8TEE1 827-841] | 97.6 | 142 |
| PTKSIKRPSPAEKS [Q9HC35 168-181] | 7.4 | 75.3 |
| PVVPPRRPPPPKKT [Q9P2Q1 393-407] | 7830 | 16000 |
